Reference: EP4793349A2

Target: cation-independent mannose-6-phosphate receptor (CIMPR)
Assay: CIMPR affinity chromatography of spent culture medium, before AEX capture

For “recombinant human α-galactosidase A (rhα-Gal A) (from UniProt P06280 32-429) (enzyme)”, which percent able to bind CIMPR is on record?
Its percent able to bind CIMPR is 80%.
